# Test results: the nanobody polyreactivity screen of Harvey et al. (2022)
# Assay: yeast display, Sf9 membrane polyspecificity reagent, FACS + sequencing; frameworks hold sequencing errors
# Summary of the method: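 Nanobodies from a synthetic yeast display library (Saccharomyces cerevisiae BJ5465), induced 36–48 hours with galactose, were stained 1 hour at 4 °C with 10% biotinylated, detergent-solubilized Sf9 membrane reagent, enriched on streptavidin microbeads, then FACS-sorted. Anti-HA (expression) and streptavidin (reagent binding) fluorescence set low and high (top ~1%) gates. Polyreactivity labels come from the gate of origin. Genes were colony-PCR amplified, MiSeq 2 × 250 sequenced and filtered by CDR length.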
row,Sequence,polyreactivity (PSR sort gate)
1,QVQLVESGGGLVQAGGSLRLSCAASGFIFNRYAMGWYRPAPGNERELVATITRRGGRTYYADSVKGRFTISRDNAKNTVYLQMNSLKPEDTALYYCNADPNVPVETFDYWGQVTQVTVSS,high polyreactivity
2,QVQLVESGGGLVQAGGSLRLSCAASGRTFQDNAMGWNRQAPGKETELVAAISWRGGSTNYADSVKGRFTISRDHAKNTVYLQMNSLKPEHTAVYYCNRDPRKYGKLDYWGQGTQVTVSS,low polyreactivity
3,QVQLVESGGGLVQAGGSLRLSCAASGLTFDPYAMGWYRQAPGKEREFVAAINSDDGSTYYADSVKGRFTISRDNAKNTVYLQMNSLKPEDTAVYYCNADLAHFLWYQYDYWGQGTQVTVSS,low polyreactivity
4,QVQLVESGGGLVQAGGSLRLSCAASGRIFTTNVMGWYRQAPGKERELVAAISWSGGNTYYADSVKGRFTISRDNAKNTVYLQMNSLKPEDTAVYYCNAVGTIREGDSWGQGTQVTVSS,low polyreactivity
5,QVQLVESGGGLVQAGGSLRLSCAASGSTFTYYAMGWYRQAPGKERELVAAITFRGDSTYYADSVKGRFTISRDNAKNTVYLQMNSLKPEDTAVYYCNADSISSTYYDEDYWGQGTQVTVSS,low polyreactivity
6,QVQLVESGGGLVQAGGSLRLSCAASGFTFVQYAMGWYRQAPGKERELVATISKSGGITYYADSVKGRFKISRDYAKNTVYLQMNSLKPEDTAVYYCAASWYYSSRGFHATWGHDYWGQGTQVTVSS,low polyreactivity
7,QVQLVESGGGLVQAGGSLRLSCAASGSNFYSYVMGWYRQAPGKERELVAAISRNGQSTYYADSVKGRFTISRDNAKNTVYLQMNSLKPEDTAVYYCAARSRDKYDYWGQGTQVTVSS,high polyreactivity
8,QVQLVESGGGLVQAGGSLRLSCAASGSTFWYNAMGWYRQAPGKERELVAAISRSGATTYYADSVKGRFTISRDNAKNTVYLQMNSLKPEDTAVYYCNAVISPSSYVRNSDYWGQGTQVTVSS,low polyreactivity
9,QVQLVESGGGLVQAGGSLRLSCAASGRTFPGYAMGWYRQAPGKETELVATISSADSTNYADSVKGRFTISRDNAKNTVYLQMNSLKPEDTAVYYCAERYGRNGAAAQYTGWYRYDYWGQGTQVTVSS,low polyreactivity
10,QVQLVESGGGLVQAGGSLRLSCAASGRTFLYYTMGWYRQAPGKERELVAAINWSGGRTYYADSVKGRFTISRDNAKNTVYLQMNSLKPEDTAVYYCNADSRYRYDYWGQGTQVTVSS,low polyreactivity
11,QVQLVESGGGLVQAGGSLRLSCAASGLINYYYAMGWYRQAPGKERELVAAISGSSGASTYYADSVKGRFTISRDNAKNTVYLQMNSLKPEDTAVYYCATPVASVTGYDYWGQGTQVTVSS,low polyreactivity
12,QVQLVESGGGLVQAGGSLRLSCAASGSNFTYYAMGWYRQAPGKEREFVAAINRSGGSTYYADSVKGRFTISRDNAKNTVYLQMNSLKPEDTAVYYCAARRGSGALRYNYWGQGTQVTVSS,high polyreactivity
13,QVQLVESGGGLVQAGGSLRLSCAASGFIFGIYAMGWYRQAPGKEREFVAAMTGSAGSTYYADSVKGRFTISRDNAKNTVYLQMNSLKPEDTAVYYCAAVLRTHRYGGYNYWGQGTQVTVSS,low polyreactivity
14,QVQLVESGGGLVQAGGSLRLISAASGSTFKIYAMGWYRQAPGKERELVAAITWSGGSTYYADSVKGRFTISRDNAKNTVYLQMNSLKPEDPAVYYCAAVQTYSRYYYWGQGTQVTVSS,high polyreactivity
15,QVQLVESGGGLVQAGGSLRLSCAASGSTLYFYAMGGYRQAPGKERELVADITWSGGSTYYADSVKGRFTISRDNAKNTVYLQMNSLKPEDTAVYYCNADDWSTYWYGYPGYVYWGQGTQVTVSS,high polyreactivity
16,QVQLVESGGGLVQAGGSLRLSCAASGFIYSNNAMGWYRQAPGKERELVAAISASGSSTYYADSVKGRFTISRDNAKNTVYLQMNSLKPEDTAVYYCAAKSRTYQSYYYWGQGTQVTVSS,high polyreactivity
17,QVQLVESGGGLVQAGGSLRLSCAASGITFEYFDRGWYRQAPGKERELVAAISWSTDITYADSVKGRFTISRDNAKNTVYLQMNSLKPEDTAVYYCAASTYEYTSYDYWGQGTQVTVSS,low polyreactivity
18,QVQLVESGGALVQAGGSLRLSCAASAFIFRINAMGWYRQAPGKERELVAAISGSGGRTYYADSVKGRFTISRDNAKNTVYLQMNSLKPVDTAVYYCARSSGYGFNYWGQGTQVTVSS,high polyreactivity
19,QVQLVESGGGLVQAGGSLRLSCAASGSIFGYNAMGWYRQAPGKERELVAAISYSGGRTYYADSVKGRFTISRDNAKNTVYLQMNSLKPEDTAVYYCAKYKVGYVPSGYRYDSWGQGTQVTVSS,high polyreactivity
20,QVQLVESAGCLVQAGGSLRLSCAASGSIISAYARGWYRQAPGKERQLVAAITRSGGSTYYADSVKGRFTISRDYAKITVYLQMNSLKPEDTAVYYCAARSYVHVFVRMYYWGQGTQVTVSS,high polyreactivity
21,QVQLQESGGGLVQAGGSLRLSCAASGYISHADEMGWYRQAPGKEHELVASISNGGSTNYADSVKGRFTISRDNANNTVYLQMNSLKSEVTAVYYCAAWTGQVDIHYYWGQGTQVTVSS,low polyreactivity
22,QVQLVESGGGLVKAGGSLRLSCAASGYTFRSYAMGWYRQAPGKEREKVARITFRGTSTYADSVKGRFTISRDNAKNTVYLQMNSLKPEESAVYYCNTSRAPWGNGYKRYDYWGQGTQVTVSS,low polyreactivity

row,Sequence,polyreactivity (PSR sort gate)
1,QVQLVESGGGLVQAGGSLRLSCAASGSTFSWNTMGWYRQAPGIERELVAAINSGGSTYYADSVKGRFTISRDNAKNSVYLQMNSLKPEDTAVYYCAADWRGSYLYGYYYWGQGTQVTVSS,low polyreactivity
2,QVQLVESGGGLVQAGGSLRLSCAASGFIFRNYAMGWYRQAPGKERELVAAISRRAGSTYYADSVKGRFTISRDNAKNTVYLQMNSLKPEVTAVYYCAADSYWRYYPTKYDYWGQGTQVTVSS,high polyreactivity
3,QFQLVESGGGLVQAGGSLRLSCASSGSTFGYNAMGWYRQAPGKESELVAAISYSGGSTSYADSVKGRFTISRDNAKNTVYLQMNSLKPEDSAVYYCASDSYSQYSSQALEGFGYWGQGTQVTVSS,low polyreactivity
4,QVQLVESGGGLVQAGGSLRLSCAASGSTFSYYAMGWYRQAPGKERELVAAITYSVGSTYYADSVKGRFTISRDNAKNTVYLQMNSLKPEDTAVYYCNKRYYYSRANYPYDYWGQGTQVTVSS,low polyreactivity
5,QVQLVESGGGLVQAGGSLRLSCAASGSISYYYGMGWYRQAPGKERELVAAISTRGGSTYYADSVKGRFTISRDNAKNTVYLQMNSLKPEDTAVYYCAVRYYRPYSRFDYWGQGTQVTVSS,high polyreactivity
6,QVQLVESGGGLVQAGGRLRLSCAASGRTFYGYAMGWYRQAPGKEREMVAAITQRGVSTYADSVKGRFTISRDNAKNTVYLQMNSLKQEDTAVYYCAADQIERFRDQTWDFDYWGQGTQVTVSS,low polyreactivity
7,QVQLVDSGGGLVQAGGSLRLSCAASGYIFPWYVKGWYRQAPVKERELVAAISWSGGSTYYADSVKGRFTISRDNAKNTVYLQMKSLKPEDTAVYYCNAVRTYRDVSYNSWGQGTQVNVSS,high polyreactivity
8,QVQLVESGGALVQAGGSLRISCAASGLIITHYAMGWYRQAPGKEMELVAAISNGGSTNYADSEKGRFTISRDNAKNTVYLEMNSLKPEDTAVSFCNARPNKYYAYPATRGKYYYWGQATQVTVSS,low polyreactivity
9,QVHLVESGGGLVQAGGSLRLSCAASGITFYYYAMGWYRQAPGKERELVAAIDTDGSTYYADSVKGRFTVSRDNAKNTVYLQMNILKPEDTAVYYCAAVIEYYPYSGYIYDYWGQGSQVTVSS,high polyreactivity
10,QVQLVESGGGLVQAGGSLRLSCAASGFIFQYYGMGWYRQAPGQVRELVAAIDSRGGSTYYADSVKGRFTISRDNAKNTVSLQMNSLKPADTAVYYCAAMGLYQGTLNHFYYWGQGTQVTVAS,low polyreactivity
11,QVQLVESGGGLVQAGGSLRLSCAASGSISGYYVMGWYRQAPGKERELVAAITWRGGSTYYADSVKGSFTISRDNAKNTVYLQMNSLKPEDTAVYYCNKVPGRRSTFEYWGQGTQVTVSS,high polyreactivity
12,QVKLVESGGGLVQAGGSHRLSCAASGSIFGDYVMGSYRQAPGKEMELVAAINRGGSTYYADSVKGRFTISRDNAKNTVYLQMNSLKPADTAVYYCAAGYPSWYYGYPYDSWGQGTQVTVSS,low polyreactivity
13,QVQLVESGGCLVQAGGRLRLSCAASGYIFDRNAMGWYRQAPGTERELVAAITKRGGITYYADSVKGRFTISRDNAKFSGYLQMNSLKPEDTAVYYCNALARSSRYDYWGQGTQVTVSS,low polyreactivity
14,QVQLVDSGGGLVQAGGSLRLSCAASGNIFRANAMGWYRQAPGKERELVAAIRWRGVGTYYADSVKGRFTISRDYAKNTVYLQINSLKPEDTAVYYCAAYVKTGAYDYWGQGTLVTVSS,high polyreactivity
15,QVQLVESGGGLVQAGGSLRLICAASGRTFPYNAMGWSRQAPGKERELVARITSGGRTYYADSVKGRFTISRDNAKNTVYLQMNSLKPEDPAVYYCAAETLRYYWKSYDWGQGTQVTVSA,high polyreactivity
16,QVQLVESGGGLVQAGGSLRLSCAASGRIFRYYAMGWYRQAPGKERELVASITYSGGRTNYADSVKGRFTISRDNAKNTVYLQMNSLKPEDTAVYYCNSAYVYYYPHYRYAPTAVDYDYWGQGTQVTVSS,low polyreactivity
17,QVQLVESGGGLVQAGGSLRLSCAASGSTFRIYAMGWYRQAPGKERELVAAISKRGGSTYYADSVKGRFTISRDNAKNTVYLQMNSLKPEDTAVYYCAKPPYSQYEFDYWGQGTQVTVSS,high polyreactivity
18,QVQLVESGGGLVQAGGSLRLSCAASGSIFLSNAMGCYRQAPGKEREIVADIDWTGGDTYYADSVKGRFTISRDNAKNTVYLQMNSLKPEDTAVYYCAADYGYRNLLTEYSYWGQGTQVTVSS,low polyreactivity
19,QVQLVESGGGLVQAGGSLRLSCAASGSIFTYYAMGWYRQAPGKERELVADISKRGGSTYYADSVKGRFTISRDNAKNTVYLQMNSLKPEYTAVYYCATRARYTWRAFEYWGQGTQVTVSS,low polyreactivity
20,QVQLEESGGGLVQAGASHRLSCAASGITFYWYAMGSYRQAPGKERELVAGISQSGSLTYYADSVKRRFTISRDNAKNTVYLQMKSLKPEDSAVYYCAARVRWSPSRTFEYWGQGSQVTVSS,high polyreactivity
21,QVQLVESGGGLVQAGGSLRLSCAASGSTFAANTMGWYRQAPGKERELVAAITVRGGSTYYADSVKGRFTISRDNAKNTVYLQMNSLKPEDTAGYYGAAERPPYGYLVVGYVSTQYYYWGQGTQVTVSS,low polyreactivity
